The target in one experiment is T1, GFP-DBR1 (human, UniProt Q9UK59 1-544).
T1 sequence: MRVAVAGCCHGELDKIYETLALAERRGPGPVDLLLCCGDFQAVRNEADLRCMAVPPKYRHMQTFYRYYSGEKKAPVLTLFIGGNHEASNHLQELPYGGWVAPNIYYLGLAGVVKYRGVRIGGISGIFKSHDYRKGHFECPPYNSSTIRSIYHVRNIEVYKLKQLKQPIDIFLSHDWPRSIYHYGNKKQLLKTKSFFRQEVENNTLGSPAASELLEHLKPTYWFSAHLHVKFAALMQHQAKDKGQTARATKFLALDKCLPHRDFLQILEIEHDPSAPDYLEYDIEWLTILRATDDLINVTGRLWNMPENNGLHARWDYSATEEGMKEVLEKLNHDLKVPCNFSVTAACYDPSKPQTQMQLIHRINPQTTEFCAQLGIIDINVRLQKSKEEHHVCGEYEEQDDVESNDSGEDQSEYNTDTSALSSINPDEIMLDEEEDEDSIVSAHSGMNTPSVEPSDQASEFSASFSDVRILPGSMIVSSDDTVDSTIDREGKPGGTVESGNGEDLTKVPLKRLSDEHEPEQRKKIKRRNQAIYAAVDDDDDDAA
Briefly: pull-down.

The next experiment concerns the target T2, His-Flag-DBR1 (human, UniProt Q9UK59 1-544).
T2 sequence (looked up): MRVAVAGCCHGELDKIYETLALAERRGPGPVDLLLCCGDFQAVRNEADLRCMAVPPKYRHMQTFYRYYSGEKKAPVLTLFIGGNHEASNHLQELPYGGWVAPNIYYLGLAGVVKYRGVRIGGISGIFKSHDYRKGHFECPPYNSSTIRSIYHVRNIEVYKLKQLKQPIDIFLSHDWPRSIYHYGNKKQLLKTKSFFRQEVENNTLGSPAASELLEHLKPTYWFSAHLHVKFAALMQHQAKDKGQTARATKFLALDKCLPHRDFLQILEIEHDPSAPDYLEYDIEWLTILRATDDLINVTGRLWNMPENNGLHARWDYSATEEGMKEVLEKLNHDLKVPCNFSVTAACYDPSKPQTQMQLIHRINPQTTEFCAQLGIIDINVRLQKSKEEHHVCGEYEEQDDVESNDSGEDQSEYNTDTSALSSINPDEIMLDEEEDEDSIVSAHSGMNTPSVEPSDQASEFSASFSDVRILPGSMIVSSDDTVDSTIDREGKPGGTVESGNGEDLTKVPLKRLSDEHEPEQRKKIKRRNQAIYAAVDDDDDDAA
Briefly: pull-down.

B1: TTDN1-mCherry (natural protein, human, UniProt Q8TAP9 1-179, looked up)
chain: MQRQNFRPPTPPYPGPGGGGWGSGSSFRGTPGGGGPRPPSPRDGYGSPHHTPPYGPRSRPYGSSHSPRHGGSFPGGRFGSPSPGGYPGSYSRSPAGSQQQFGYSPGQQQTHPQGSPRTSTPFGSGRVREKRMSNELENYFKPSMLEDPWAGLEPVSVVDISQQYSNTQTFTGKKGRYFC
With B1, the binding result with GFP-DBR1 was “binds”.

B2: GST-TTDN1 (natural protein, human, UniProt Q8TAP9 1-179, looked up)
chain: MQRQNFRPPTPPYPGPGGGGWGSGSSFRGTPGGGGPRPPSPRDGYGSPHHTPPYGPRSRPYGSSHSPRHGGSFPGGRFGSPSPGGYPGSYSRSPAGSQQQFGYSPGQQQTHPQGSPRTSTPFGSGRVREKRMSNELENYFKPSMLEDPWAGLEPVSVVDISQQYSNTQTFTGKKGRYFC
Regarding B2, the binding result with His-Flag-DBR1 is listed as “binds”.

The values above are taken from paper doi:10.1101/2022.11.03.515106 (bioRxiv, 2022).
